In patent US20190359687A1 (Bayer, published 2019):
Residue numbers refer to the chain shown, from its start.

T1: human glycophorin A in the red blood cell membrane (human, UniProt P02724 20-150)
T1 construct: whole, on cells; used for intact RBC, isolated RBC membranes and transfected cells; the assay field tells which; also called GPA; hGPA
T1 sequence (looked up): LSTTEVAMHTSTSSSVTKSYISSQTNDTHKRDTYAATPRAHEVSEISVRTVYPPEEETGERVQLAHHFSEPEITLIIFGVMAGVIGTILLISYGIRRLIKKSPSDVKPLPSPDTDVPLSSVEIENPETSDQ

T2: Rhesus monkey glycophorin A on Rhesus monkey red blood cells (Rhesus monkey, UniProt A0A1D5Q349 20-150)
T2 construct: whole, on cells; also called Rhesus RBC; monkey GPA
T2 sequence: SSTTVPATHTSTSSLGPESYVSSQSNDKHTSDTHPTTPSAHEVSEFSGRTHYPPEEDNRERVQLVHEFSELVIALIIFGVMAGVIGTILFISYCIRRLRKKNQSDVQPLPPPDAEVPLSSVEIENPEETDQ

T3: glycophorin A peptide GP5 (human, biotin at the N-terminus)
T3 construct: Residues 42 to 61 of the human glycophorin A extracellular domain
T3 peptide: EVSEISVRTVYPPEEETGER

T4: purified human glycophorin A protein (Sigma, cat # G5017) (human, UniProt P02724 20-150)
T4 construct: mature; also called Sigma hGPA; Sigma GPA
T4 sequence (looked up): T1 sequence (looked up)

B1: Hu6C12-11 (antibody, V domains shown)
VH: EVQLVQSGAEVKKPGASVKVSCKASGYTFTTYTIHWVRQAPGQGLEWMGYINPSSDYTRYNPKFKDRVTMTTDTSTSTAYMELRSLRSDDTAVYYCATGTRDYWGQGTTVTVSS
VL: DIQLTQSPSFLSASVGDRVTITCSAASSVSYIYWYQQKPGKAPKLLIYSTSTLPSGVPSRFSGSGSGTEYTLTISSLQPEDFATYYCHQRNSFPFTFGQGTKLEIK
notes: IgG format; VH.1b + Vk.1a
B2: Hu6C12-3 (antibody, V domains shown)
VH: B1 VH with A97Q
VL: B1 VL with Y70F
notes: IgG format; VH.1c + Vk.1
B3: Hu6C12-14 (antibody, V domains shown)
VH: B1 VH with M70L
VL: B1 VL
notes: IgG format; VH.1e + Vk.1a
B4: Hu6C12-6 (antibody, V domains shown)
VH: B1 VH with M70L, A97Q
VL: B1 VL with Y70F
notes: IgG format; VH.1f + Vk.1
B5: Hu6C12-7 (antibody, V domains shown)
VH: B1 VH with M48I, M70L, T74K, A97Q
VL: B1 VL with Y70F
notes: IgG format; VH.1g + Vk.1
B6: Hu6C12-2 (antibody, V domains shown)
VH: B1 VH
VL: B1 VL with Y70F
notes: IgG format; VH.1b + Vk.1
B7: TPP-8744 FVIII-scFv fusion protein (other)
chain: ATRRYYLGAVELSWDYMQSDLGELPVDARFPPRVPKSFPFNTSVVYKKTLFVEFTDHLFNIAKPRPPWMGLLGPTIQAEVYDTVVITLKNMASHPVSLHAVGVSYWKASEGAEYDDQTSQREKEDDKVFPGGSHTYVWQVLKENGPMASDPLCLTYSYLSHVDLVKDLNSGLIGALLVCREGSLAKEKTQTLHKFILLFAVFDEGKSWHSETKNSLMQDRDAASARAWPKMHTVNGYVNRSLPGLIGCHRKSVYWHVIGMGTTPEVHSIFLEGHTFLVRNHRQASLEISPITFLTAQTLLMDLGQFLLFCHISSHQHDGMEAYVKVDSCPEEPQLRMKNNEEAEDYDDDLTDSEMDVVRFDDDNSPSFIQIRSVAKKHPKTWVHYIAAEEEDWDYAPLVLAPDDRSYKSQYLNNGPQRIGRKYKKVRFMAYTDETFKTREAIQHESGILGPLLYGEVGDTLLIIFKNQASRPYNIYPHGITDVRPLYSRRLPKGVKHLKDFPILPGEIFKYKWTVTVEDGPTKSDPRCLTRYYSSFVNMERDLASGLIGPLLICYKESVDQRGNQIMSDKRNVILFSVFDENRSWYLTENIQRFLPNPAGVQLEDPEFQASNIMHSINGYVFDSLQLSVCLHEVAYWYILSIGAQTDFLSVFFSGYTFKHKMVYEDTLTLFPFSGETVFMSMENPGLWILGCHNSDFRNRGMTALLKVSSCDKNTGDYYEDSYEDISAYLLSKNNAIEPRSFSQNGGGGSTGGTGGSSGGGTGSGGGGTGGSGGTDIQLTQSPSFLSASVGDRVTITCRASSSVSYIYWFQQKPGKAPKLLIYATSTLQSGVPSRFSGSGSGTEYTLTISSLQPEDFATYYCHQRNSFPYTFGQGTKLEIKGGGGSGGGGSGGGGSGGGGSEVQLVQSGAEVKKPGASVKVSCKASGYTFTRYTIHWVRQAPGQGLEWMGYINPSSGYTRYNPKFKGRVTMTRDKSTSTAYMELRSLRSDDTAVYYCWTGTRDYWGQGTTVTVSSGGGGSQNPPVLKRHQREITDENQSPRSFQKKTRHYFIAAVERLWDYGMSSSPHVLRNRAQSGSVPQFKKVVFQEFTDGSFTQPLYRGELNEHLGLLGPYIRAEVEDNIMVTFRNQASRPYSFYSSLISYEEDQRQGAEPRKNFVKPNETKTYFWKVQHHMAPTKDEFDCKAWAYFSDVDLEKDVHSGLIGPLLVCHTNTLNPAHGRQVTVQEFALFFTIFDETKSWYFTENMERNCRAPCNIQMEDPTFKENYRFHAINGYIMDTLPGLVMAQDQRIRWYLLSMGSNENIHSIHFSGHVFTVRKKEEYKMALYNLYPGVFETVEMLPSKAGIWRVECLIGEHLHAGMSTLFLVYSNKCQTPLGMASGHIRDFQITASGQYGQWAPKLARLHYSGSINAWSTKEPFSWIKVDLLAPMIIHGIKTQGARQKFSSLYISQFIIMYSLDGKKWQTYRGNSTGTLMVFFGNVDSSGIKHNIFNPPIIARYIRLHPTHYSIRSTLRMELMGCDLNSCSMPLGMESKAISDAQITASSYFTNMFATWSPSKARLHLQGRSNAWRPQVNNPKEWLQVDFQKTMKVTGVTTQGVKSLLTSMYVKEFLISSSQDGHQWTLFFQNGKVKVFQGNQDSFTPVVNSLDPPLLTRYLRIHPQSWVHQIALRMEVLGCEAQDLY
notes: The entry is the mature protein; mostly a 2 chain molecule

Each binder was assayed against T5, Cynomolgus monkey glycophorin A on Cynomolgus monkey red blood cells (Cynomolgus monkey) (assay: FACS, RBC Cy01).
T5 construct: whole, on cells; also called Cyno RBC; Cyno GPA
Procedure: (§1) The binding of the humanized variants to intact red blood cells (RBC) from humans (Hu01 to 03; 3 individuals), Rhesus monkey (Rh01 to 03; 3 individuals) and Cynomolgus monkey (Cy01 to 02; 2 individuals) was measured by fluorescence activated cell sorting (FACS).
In the case of B1, the fluorescence intensity is reported as 960. B2 showed a fluorescence intensity of 1120. With B3 the fluorescence intensity was 978. B4 showed a fluorescence intensity of 1060. B5 gave a fluorescence intensity of 1360. In the case of B6, the fluorescence intensity is reported as 962.

Each binder was assayed against T1, human glycophorin A in the red blood … (assay: FACS, RBC Hu03).
Procedure: as §1
B1 gave a fluorescence intensity of 387. Binder B2 has a fluorescence intensity of 862. B3 showed a fluorescence intensity of 384. Work on B4 yielded a fluorescence intensity of 786. B5 gave a fluorescence intensity of 1100. In the case of B6, the fluorescence intensity is reported as 716.

What follows are binders tested against T1, human glycophorin A in the red blood … (assay: FACS, RBC Hu01).
Procedure: as §1
With B1 the fluorescence intensity was 548. B2 showed a fluorescence intensity of 1070. B3 was tested, and the fluorescence intensity was 514. Binder B4 has a fluorescence intensity of 909. For B5, the fluorescence intensity was 1230. Binder B6 has a fluorescence intensity of 897.

These binders were tested against T2, Rhesus monkey glycophorin A on Rhesus … (assay: FACS, RBC Rh03).
Procedure: as §1
B1 gave a fluorescence intensity of 1420. For B2, the fluorescence intensity was 1600. With B3 the fluorescence intensity was 1480. With B4 the fluorescence intensity was 1540. Binder B5 has a fluorescence intensity of 1920. Binder B6 has a fluorescence intensity of 1380.

Each binder was assayed against T2, Rhesus monkey glycophorin A on Rhesus … (assay: FACS, RBC Rh01).
Procedure: as §1
With B1 the fluorescence intensity was 1530. B2 was tested, and the fluorescence intensity was 1730. In the case of B3, the fluorescence intensity is reported as 1480. B4 gave a fluorescence intensity of 1640. For B5, the fluorescence intensity was 2060. Work on B6 yielded a fluorescence intensity of 1530.

What follows are binders tested against T2, Rhesus monkey glycophorin A on Rhesus … (assay: FACS, RBC Rh02).
For B1, the fluorescence intensity was 1440. Binder B2 has a fluorescence intensity of 1600. Work on B3 yielded a fluorescence intensity of 1480. For B4, the fluorescence intensity was 1520. Work on B5 yielded a fluorescence intensity of 1940. Work on B6 yielded a fluorescence intensity of 1400.

The binders below were run against T1, human glycophorin A in the red blood … (assay: FACS, RBC Hu02).
Procedure: as §1
For B1, the fluorescence intensity was 315. For B2, the fluorescence intensity was 739. B3 was tested, and the fluorescence intensity was 298. With B4 the fluorescence intensity was 634. Binder B5 has a fluorescence intensity of 945. For B6, the fluorescence intensity was 603.

These binders were tested against T5, Cynomolgus monkey glycophorin A on … (assay: FACS, RBC Cy02).
Procedure: as §1
B1 gave a fluorescence intensity of 1020. In the case of B2, the fluorescence intensity is reported as 1200. Work on B3 yielded a fluorescence intensity of 1080. Work on B4 yielded a fluorescence intensity of 1100. For B5, the fluorescence intensity was 1430. B6 showed a fluorescence intensity of 1030.

Biological target: T3, glycophorin A peptide GP5
Experiment: Octet, GP5 peptide on the probe, fusion protein in solution, 1:1 fit
Work on B7 yielded a Kd of 7.35 nM, a koff of 0.0048 s⁻¹ and a kon of 652000 M⁻¹ s⁻¹.

What follows are binders tested against T4, purified human glycophorin A protein … (assay: ELISA, IgG).
Work on B2 yielded an EC50 of 2.17 nM. Binder B4 has an EC50 of 3.46 nM. With B5 the EC50 was 1.78 nM. In the case of B6, the EC50 is reported as 8.65 nM.
